These results are taken from publication PMC5662892.

The test system of this data set is ORC-Qdot705 (Orc1-6) (budding yeast). The experiment in a line: single-molecule TIRFM. The note with it: RPA: 20 mM Tris pH 7.5, 50 mM NaCl, 2 mM EDTA, 0.2 mg/ml BSA, ORC: 25 mM HEPES pH 7.6, 12 mM MgOAc, 50 uM ZnOAc, 1 mM DTT, 225 mM KGlut, 3 mM ATP.

lambda-ARS1 displayed a binding signal (% of binding positions at ARS1 site) of 12.8.
